Two substances from PMC3575545 can be followed below.

Where “and” joins values, the source holds several entries; their conditions need not be identical. Equal values may be shown once.

In experiment [1] the target is SRP (Ffh bound to 4.5 S RNA) with DACM-labeled Ffh Cys235 (UniProt P0AGD7). The experiment in a line: FRET or BRET. Background: In BRET a luciferase serves as donor, and the signal depends on an acceptor being close.
In experiment [2] the target is acrylodan-labeled FtsY Cys356 (UniProt P10121). The experiment in a line: other fluorescence titration.

“BODIPY-FL-labeled FtsY Cys487 (full-length FtsY) (from UniProt P10121 1-497) (receptor)”: in experiment [1], the Kd (as a rule, the concentration at which binding is half-saturated) came out at 162 nM and the fold destabilisation of the early complex by SecYEG (against no SecYEG) was greater than 15 fold. Take “Signal recognition particle (SRP; Ffh bound to 4.5 S RNA) (from UniProt P0AGD7 1-453) (complex)”: in experiment [2], the fold stabilisation of the activated complex by SecYEG (against no SecYEG) is 2 fold and 4 fold.
